Results reported in patent US20150299305A1 (Alexion, published 2015).
Residue numbers refer to the chain shown, from its start. Names and notes keep the numbering of the source.

Key:
[1] = target: T1, human complement component C5 (human, UniProt P01031 19-673; P01031 678-1676); assay: SPR, pH 6.0
T1 construct: mature; Native purified protein; also called human C5; hC5

[2] = target: T1, human complement component C5; assay: SPR, pH 7.4
[3] = target: T1, human complement component C5; assay: SPR
[4] = target: complement component C1q (UniProt P02745 23-245; P02746 28-253; P02747 29-245); assay: biolayer interferometry
[5] = target: T2, Human FcγRIIa (CD32a) (human, UniProt P12318 36-218, limits assumed); assay: ELISA, multimeric antibody immune complexes on His-tagged FcγRIIa; reference not named (IgG1 control implied)
T2 construct: Bought reagent; not shown: 6x histidine tag
T2 sequence (looked up): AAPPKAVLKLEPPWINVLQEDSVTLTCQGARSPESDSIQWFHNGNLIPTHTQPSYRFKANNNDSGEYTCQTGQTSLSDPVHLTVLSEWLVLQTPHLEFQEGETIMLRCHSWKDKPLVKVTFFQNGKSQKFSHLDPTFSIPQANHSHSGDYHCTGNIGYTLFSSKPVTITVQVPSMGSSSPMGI

[6] = target: T2, Human FcγRIIa (CD32a); assay: SPR, antibody immobilized, monomeric FcγR injected, steady state, pH 7.4
Description: (§1) A second flow cell was used as a reference surface. Concentrations of FcγRs diluted in running buffer (HBS-EP, pH 7.4) were injected on both cells. The surface was regenerated each cycle with 20 mM HCl, 0.01% P20. The data was analyzed using a steady state affinity model in BIAevaluation 4.1 software (BIAcore AB, Uppsala, Sweden) with ‘double referencing’.

[7] = target: T3, Human FcγRIIb/c (CD32b/c) (human, UniProt P31994 46-217, limits assumed); assay: SPR, antibody immobilized, monomeric FcγR injected, steady state, pH 7.4; SPR, monomeric FcγR
T3 construct: Bought reagent; not shown: 6x histidine tag
T3 sequence (looked up): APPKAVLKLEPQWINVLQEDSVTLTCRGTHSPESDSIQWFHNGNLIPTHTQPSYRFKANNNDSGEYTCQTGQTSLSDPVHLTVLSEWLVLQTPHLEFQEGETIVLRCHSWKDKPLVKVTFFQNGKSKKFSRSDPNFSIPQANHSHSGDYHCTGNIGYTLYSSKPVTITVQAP

[8] = target: T4, Human FcγRIIIb (CD16b) (human, UniProt O75015 17-200, limits assumed); assay: as above
T4 construct: Bought reagent; not shown: 6x histidine tag

[9] = target: T5, Human FcγRI (CD64) (human, UniProt P12314 16-288, limits assumed); assay: as above
T5 construct: Bought reagent; also called FcγR1; not shown: 6x histidine tag

[10] = target: T6, Human FcγRIIIa (CD16a) (human, UniProt P08637 17-208, limits assumed); assay: as above
T6 construct: Bought reagent; not shown: 6x histidine tag

[11] = target: T7, human neonatal Fc receptor (FcRn) (human, UniProt P55899 24-297; P61769 21-119, limits assumed); assay: SPR, F(ab')2 capture, pH 6.0
T7 construct: also called hFcRn; human FcRn
Excerpt: The data were processed with a 1:1 Langmuir model using BIAevaluation 4.1 software (BIAcore AB, Uppsala, Sweden) with ‘double referencing’.

[12] = target: T5, Human FcγRI (CD64); assay: SPR, antibody immobilized, single cycle kinetics, pH 7.4; Table 16 cell under the head KD [µM]
Description: The antibody was diluted in 10 mM sodium acetate at pH 5.0 and directly immobilized on one flow cell of a CM5 chip by amine coupling. A second flow cell was used as a reference surface. Concentrations of FcγR1 diluted in running buffer (HBS-EP, pH 7.4) were injected on both cells. This assay required no regeneration. The data was analyzed using a titration kinetics 1:1 model in BIAevaluation 4.1 (Biacore AB, Uppsala, Sweden) software with ‘double referencing’.

[13] = target: T3, Human FcγRIIb/c (CD32b/c); assay: SPR, antibody immobilized, monomeric FcγR injected, steady state, pH 7.4
Description: as §1

[14] = target: T4, Human FcγRIIIb (CD16b); assay: as above
Description: as §1

[15] = target: T6, Human FcγRIIIa (CD16a); assay: as above
Description: as §1

[16] = target: T8, mouse C5 (mouse, UniProt P06684 19-674; P06684 679-1680); assay: SPR, anti-Fc capture, pH 7.4; pH 7.4
T8 construct: also called purified mouse C5
Description: Briefly, anti-human Fc (KPL, catalogue number: 01-10-20) diluted to 0.1 mg/mL in 10 mM sodium acetate pH 5.0, was immobilized on two flow cells of a CM5 chip for 8 minutes by amine coupling. The antibodies were diluted to 0.25 μg/mL in running buffer (HBS-EP; 0.01 M HEPES pH 7.4, 0.15 M NaCl, 3 mM EDTA, 0.005% v/v Surfactant P20; GE Life Sciences, catalogue number: BR1001-88). The diluted antibody was then injected on one flow cell followed by an injection of 6 nM mouse C5 on both cells. The second flow cell was used as a reference surface. The binding was evaluated at pH 7.4 and pH 6.0. The surface was regenerated each time with 20 mM HCl, 0.01% P20. The data was processed with a 1:1 Langmuir model using BIAevaluation 4.1 software with ‘double referencing’.

[17] = target: T9, human hypercalcemia of malignancy peptide, amino acid residues 1-34 (human, UniProt P12272 37-70); assay: immunofluorescent staining of UV-resin spot slides
T9 construct: range 1-34; Negative control material on UV-resin spot slides; also called PTHrP 1-34

T8 sequence (P06684 19-674 limits assumed, chain 1 of 2): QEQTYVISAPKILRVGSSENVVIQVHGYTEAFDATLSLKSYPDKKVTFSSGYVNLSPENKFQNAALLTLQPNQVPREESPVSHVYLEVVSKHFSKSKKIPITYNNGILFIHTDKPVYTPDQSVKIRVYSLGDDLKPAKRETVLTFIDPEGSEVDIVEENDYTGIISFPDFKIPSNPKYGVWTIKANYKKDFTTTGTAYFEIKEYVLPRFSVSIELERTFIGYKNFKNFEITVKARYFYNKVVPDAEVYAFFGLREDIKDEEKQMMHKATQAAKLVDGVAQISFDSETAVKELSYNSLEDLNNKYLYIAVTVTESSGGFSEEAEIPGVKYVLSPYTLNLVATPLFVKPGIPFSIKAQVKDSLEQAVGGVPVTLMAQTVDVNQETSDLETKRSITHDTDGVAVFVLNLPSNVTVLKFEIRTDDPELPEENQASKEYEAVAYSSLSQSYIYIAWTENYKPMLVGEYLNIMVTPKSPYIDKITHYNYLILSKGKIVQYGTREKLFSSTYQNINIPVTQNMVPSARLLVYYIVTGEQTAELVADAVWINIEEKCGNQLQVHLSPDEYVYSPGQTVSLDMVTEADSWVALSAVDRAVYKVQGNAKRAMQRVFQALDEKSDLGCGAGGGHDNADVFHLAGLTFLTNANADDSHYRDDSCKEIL
T8 sequence (P06684 679-1680 limits assumed, chain 2 of 2): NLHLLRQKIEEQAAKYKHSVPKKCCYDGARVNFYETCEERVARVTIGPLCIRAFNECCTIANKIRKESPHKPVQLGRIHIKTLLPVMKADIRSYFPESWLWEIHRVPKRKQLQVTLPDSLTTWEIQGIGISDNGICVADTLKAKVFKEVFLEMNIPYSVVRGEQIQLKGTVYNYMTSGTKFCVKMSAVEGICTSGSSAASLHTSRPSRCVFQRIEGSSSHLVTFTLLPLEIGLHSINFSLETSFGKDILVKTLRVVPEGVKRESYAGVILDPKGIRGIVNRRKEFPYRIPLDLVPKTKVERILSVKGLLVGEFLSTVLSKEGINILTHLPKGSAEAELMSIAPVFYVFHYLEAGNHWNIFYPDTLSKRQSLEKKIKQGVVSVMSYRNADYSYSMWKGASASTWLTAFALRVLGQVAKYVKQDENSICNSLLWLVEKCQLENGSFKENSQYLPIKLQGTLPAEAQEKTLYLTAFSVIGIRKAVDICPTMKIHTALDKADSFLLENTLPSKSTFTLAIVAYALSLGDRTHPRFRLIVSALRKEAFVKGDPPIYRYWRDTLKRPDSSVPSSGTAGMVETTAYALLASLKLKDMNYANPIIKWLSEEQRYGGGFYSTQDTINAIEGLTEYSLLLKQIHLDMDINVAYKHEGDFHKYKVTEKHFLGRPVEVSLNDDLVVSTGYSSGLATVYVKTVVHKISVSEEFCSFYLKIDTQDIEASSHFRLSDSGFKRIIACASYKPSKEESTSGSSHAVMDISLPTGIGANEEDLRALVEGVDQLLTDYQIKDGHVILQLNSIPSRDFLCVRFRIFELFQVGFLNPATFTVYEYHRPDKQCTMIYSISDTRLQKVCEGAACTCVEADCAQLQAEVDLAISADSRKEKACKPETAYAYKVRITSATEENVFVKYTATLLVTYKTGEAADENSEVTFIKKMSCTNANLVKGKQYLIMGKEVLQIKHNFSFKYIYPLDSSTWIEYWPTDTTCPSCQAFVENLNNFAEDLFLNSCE
T4 sequence (O75015 17-200 limits assumed): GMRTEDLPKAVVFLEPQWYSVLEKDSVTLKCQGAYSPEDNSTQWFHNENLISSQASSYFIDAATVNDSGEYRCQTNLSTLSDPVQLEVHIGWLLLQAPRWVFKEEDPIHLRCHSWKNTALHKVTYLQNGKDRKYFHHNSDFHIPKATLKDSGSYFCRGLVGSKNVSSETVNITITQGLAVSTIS
complement component C1q, sequence (P02745 23-245, chain 1 of 3): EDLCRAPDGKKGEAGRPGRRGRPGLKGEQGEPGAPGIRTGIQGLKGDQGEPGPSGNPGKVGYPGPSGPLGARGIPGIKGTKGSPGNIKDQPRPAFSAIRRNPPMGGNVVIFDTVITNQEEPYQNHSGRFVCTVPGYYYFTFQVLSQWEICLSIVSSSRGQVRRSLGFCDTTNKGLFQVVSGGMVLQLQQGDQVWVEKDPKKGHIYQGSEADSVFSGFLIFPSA
complement component C1q, sequence (P02746 28-253, chain 2 of 3): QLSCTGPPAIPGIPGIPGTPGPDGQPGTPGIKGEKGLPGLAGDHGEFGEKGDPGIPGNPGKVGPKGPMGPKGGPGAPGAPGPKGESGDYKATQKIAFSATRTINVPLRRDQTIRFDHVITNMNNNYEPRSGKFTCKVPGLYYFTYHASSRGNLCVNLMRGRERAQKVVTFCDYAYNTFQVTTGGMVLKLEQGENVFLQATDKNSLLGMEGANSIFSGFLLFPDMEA
complement component C1q, sequence (P02747 29-245, chain 3 of 3): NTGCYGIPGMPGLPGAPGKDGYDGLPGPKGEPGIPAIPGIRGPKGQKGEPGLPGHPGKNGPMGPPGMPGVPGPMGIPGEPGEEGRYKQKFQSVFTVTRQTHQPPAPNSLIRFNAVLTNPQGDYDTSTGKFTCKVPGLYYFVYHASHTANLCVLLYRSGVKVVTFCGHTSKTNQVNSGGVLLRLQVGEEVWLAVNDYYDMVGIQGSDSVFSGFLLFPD
T5 sequence (P12314 16-288 limits assumed): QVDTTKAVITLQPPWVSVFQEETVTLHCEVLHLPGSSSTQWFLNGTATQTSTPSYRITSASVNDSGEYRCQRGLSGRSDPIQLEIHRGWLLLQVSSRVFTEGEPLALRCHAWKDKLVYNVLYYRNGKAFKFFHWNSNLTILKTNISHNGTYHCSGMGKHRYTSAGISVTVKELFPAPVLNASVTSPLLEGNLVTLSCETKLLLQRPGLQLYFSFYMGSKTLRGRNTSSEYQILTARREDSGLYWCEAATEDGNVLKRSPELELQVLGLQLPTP
T6 sequence (P08637 17-208 limits assumed): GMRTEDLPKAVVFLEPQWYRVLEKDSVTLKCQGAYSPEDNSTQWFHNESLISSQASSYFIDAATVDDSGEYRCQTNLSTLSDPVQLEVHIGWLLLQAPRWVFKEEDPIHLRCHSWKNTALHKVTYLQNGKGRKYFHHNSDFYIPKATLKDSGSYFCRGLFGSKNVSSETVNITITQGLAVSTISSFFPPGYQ
T7 sequence (P55899 24-297 limits assumed, chain 1 of 2): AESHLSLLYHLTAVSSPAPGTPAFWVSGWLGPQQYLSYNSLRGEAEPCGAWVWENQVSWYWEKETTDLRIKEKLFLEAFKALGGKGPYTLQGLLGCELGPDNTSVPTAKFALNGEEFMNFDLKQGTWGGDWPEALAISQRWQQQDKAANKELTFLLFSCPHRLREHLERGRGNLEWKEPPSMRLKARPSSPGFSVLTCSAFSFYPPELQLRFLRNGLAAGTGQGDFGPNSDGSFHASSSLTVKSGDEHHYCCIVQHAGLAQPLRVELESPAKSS
T7 sequence (P61769 21-119 limits assumed, chain 2 of 2): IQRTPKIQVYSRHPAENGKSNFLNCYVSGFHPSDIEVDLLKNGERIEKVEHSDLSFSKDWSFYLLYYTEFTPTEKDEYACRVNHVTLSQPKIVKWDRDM

B1: EHL004 (antibody, V domains shown)
VH: QVQLVQSGAEVKKPGASVKVSCKASGYIFSNYWIQWVRQAPGQGLEWMGEILPGSGHTEYTENFKDRVTMTRDTSTSTVYMELSSLRSEDTAVYYCARYFFGSSPNWYFDVWGQGTLVTVSS
VL: DIQMTQSPSSLSASVGDRVTITCGASENIYHALNWYQQKPGKAPKLLIYGATNLADGVPSRFSGSGSGTDFTLTISSLQPEDFATYYCQNVLNTPLTFGQGTKVEIK
notes: The VH cell prints only 'S57H'
With B1 as the binder, how does the Kd [1] read?
Its Kd is 374 nM.

And the Kd [2]?
Its Kd is 0.135 nM.

And the “ratio of KD at pH 6.0/pH 7.4” value [3]?
The value was 2770.

B2: BNJ441 (antibody, human IgG2, kappa)
heavy: QVQLVQSGAEVKKPGASVKVSCKASGHIFSNYWIQWVRQAPGQGLEWMGEILPGSGHTEYTENFKDRVTMTRDTSTSTVYMELSSLRSEDTAVYYCARYFFGSSPNWYFDVWGQGTLVTVSSASTKGPSVFPLAPCSRSTSESTAALGCLVKDYFPEPVTVSWNSGALTSGVHTFPAVLQSSGLYSLSSVVTVPSSNFGTQTYTCNVDHKPSNTKVDKTVERKCCVECPPCPAPPVAGPSVFLFPPKPKDTLMISRTPEVTCVVVDVSQEDPEVQFNWYVDGVEVHNAKTKPREEQFNSTYRVVSVLTVLHQDWLNGKEYKCKVSNKGLPSSIEKTISKAKGQPREPQVYTLPPSQEEMTKNQVSLTCLVKGFYPSDIAVEWESNGQPENNYKTTPPVLDSDGSFFLYSRLTVDKSRWQEGNVFSCSVLHEALHSHYTQKSLSLSLGK
light: DIQMTQSPSSLSASVGDRVTITCGASENIYGALNWYQQKPGKAPKLLIYGATNLADGVPSRFSGSGSGTDFTLTISSLQPEDFATYYCQNVLNTPLTFGQGTKVEIKRTVAAPSVFIFPPSDEQLKSGTASVVCLLNNFYPREAKVQWKVDNALQSGNSQESVTEQDSKDSTYSLSSTLTLSKADYEKHKVYACEVTHQGLSSPVTKSFNRGEC
notes: IgG2/G4, kappa; also called BNJ441 antibody; BNJ441 engineering batch
What does the source list for B2?
binding result [4]: no binding; fold weaker association [5]: 4 fold; Kd [6]: 2310 nM; Kd [7]: 8090 nM; Kd [8]: 3330 nM; Kd [9]: 3750 nM; Kd [10]: 7230 nM; fold increase in affinity compared to eculizumab [11]: ~10 fold

B3: eculizumab (antibody, human IgG2, kappa)
heavy: B2 heavy with H27Y, H57S, L429M, S435N
light: B2 light
notes: Humanized anti-human C5 antibody, hybrid human IgG2/G4 constant region, human kappa light chain; also called Ec293F
Does B3 bind [4]?
Result: no binding

What about the fold weaker association [5] of the same binder?
Its fold weaker association is 8 fold.

What about the Kd [6] of the same binder?
The Kd was 2580 nM.

What about the Kd [7] of the same binder?
Its Kd is 9840 nM.

B4: h5G1.1-IgG1 (antibody)
heavy: not shown
light: B2 light
notes: IgG1 isotype antibody with the same humanized variable region as eculizumab; light chain identical to that of eculizumab and BNJ441; also called h5G1.1-hG1; IgG1 isotype control
What does the source list for B4?
Kd [12]: 0.123 nM; Kd [13]: 3060 nM; Kd [14]: 1890 nM; Kd [15]: 850 nM; Kd [6]: 800 nM

B5: BHL006 (antibody, human IgG2, kappa)
heavy: QVQLQQPGAELVRPGTSVKLSCKASGYTFTSSWMHWVKQRPGQGLEWIGVIDPHDSYTNYNQKFKGKATLTVDTSSSTAYMQLSSLTSEDSAVYYCARGGGSSYNRYFDVWGTGTTVTVSSASTKGPSVFPLAPCSRSTSESTAALGCLVKDYFPEPVTVSWNSGALTSGVHTFPAVLQSSGLYSLSSVVTVPSSNFGTQTYTCNVDHKPSNTKVDKTVERKCCVECPPCPAPPVAGPSVFLFPPKPKDTLMISRTPEVTCVVVDVSQEDPEVQFNWYVDGVEVHNAKTKPREEQFNSTYRVVSVLTVLHQDWLNGKEYKCKVSNKGLPSSIEKTISKAKGQPREPQVYTLPPSQEEMTKNQVSLTCLVKGFYPSDIAVEWESNGQPENNYKTTPPVLDSDGSFFLYSRLTVDKSRWQEGNVFSCSVMHEALHNHYTQKSLSLSLGK
light: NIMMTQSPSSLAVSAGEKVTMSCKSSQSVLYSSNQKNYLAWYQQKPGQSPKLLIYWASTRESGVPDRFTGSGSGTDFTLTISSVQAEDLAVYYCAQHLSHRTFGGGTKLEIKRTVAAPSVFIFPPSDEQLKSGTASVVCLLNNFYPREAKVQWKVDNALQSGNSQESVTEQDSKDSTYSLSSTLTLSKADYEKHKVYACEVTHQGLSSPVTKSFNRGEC
notes: BHL011 with three histidine substitutions in the murine variable regions; also called pH-dependent variant of BHL011
What does the source list for B5?
Kd [16]: 3.49 nM; koff [16]: 0.00102 s⁻¹; kon [16]: 293000 M⁻¹ s⁻¹

B6: BHL009 (antibody, human IgG2, kappa)
heavy: B5 heavy with M428L, N434S
light: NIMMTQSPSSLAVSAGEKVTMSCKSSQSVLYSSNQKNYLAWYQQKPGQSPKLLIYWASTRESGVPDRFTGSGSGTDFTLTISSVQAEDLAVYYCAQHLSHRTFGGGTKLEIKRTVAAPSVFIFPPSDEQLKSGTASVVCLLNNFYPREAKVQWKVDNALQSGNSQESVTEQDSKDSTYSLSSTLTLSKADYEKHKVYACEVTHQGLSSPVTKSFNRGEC
notes: BHL006 with M428L, N434S in the human heavy chain constant region
With B6 as the binder, how does the Kd [16] read?
The Kd was 4.19 nM.

And the koff [16]?
The koff was 0.00109 s⁻¹.

What about the kon [16] of the same binder?
Its kon is 261000 M⁻¹ s⁻¹.

B7: BNJ441-FITC (antibody, human IgG2, kappa)
heavy: B2 heavy
light: B2 light
modifications: fluoresceinated (FITC); sites not stated
notes: also called fluoresceinated BNJ441
Does B7 bind [17]?
Result: no binding
